Experimental data published in paper PMC3536650.
Values belong to the substance of their own block, whether it stands above or below them.

How the values were obtained:
Experiment in all cases: cross-linking; engineered disulfide bridge in purified EF1; overnight with 400 µM DTNB (oxidised), 10 mM DTT (reduced), 30 mM DTT (re-reduced); SDS-PAGE with non-oxidizing sample buffer, Coomassie; yield from the change of the γ-band, oxidized against reduced; immunoblots against α and γ
[1] = target: E. coli F1-ATPase subunit α with αP281C, in the cysteine-free EF1 mutant FH4 (Escherichia coli) (UniProt P0ABB0)
[2] = target: E. coli F1-ATPase subunit α with αP280C, in the cysteine-free EF1 mutant GH54 (Escherichia coli) (UniProt P0ABB0)
[3] = target: E. coli F1-ATPase subunit α with αE284C, in the cysteine-free EF1 mutant GH19 (Escherichia coli) (UniProt P0ABB0)

cross-link yield [1]: 85%
Substance: E. coli F1-ATPase subunit γ with γK109C and γI279C, in the cysteine-free EF1 mutant FH4 (natural protein)

cross-link yield [2]: 90%
Substance: E. coli F1-ATPase subunit γ with γK109C, γA213C and γG282C, in the cysteine-free EF1 mutant GH54 (natural protein)

cross-link yield [3]: > 95%
Substance: E. coli F1-ATPase subunit γ with γK109C, γA213C and γL276C, in the cysteine-free EF1 mutant GH19 (natural protein)
